As usually defined, the stoichiometry N is a count of units in the complex or per binding partner.

Consider three molecules from PMC4618232 (Nature chemical biology, 2015).

B1: mouse XXYLT1 (Xylosideα1–3 Xylosyltransferase), soluble domain S43–D392 after limited proteolysis with trypsin (enzyme, UniProt Q3U4G3 93-391, looked up)
chain: VVPVDYHLLMMFTKAEHNAPLQAKARVALSSLLRLAKFEAHEVLNLHFVSEEASREVAKALLRELLPPAAGFKCKVIFHDVAVLTDKLFPVVEAMQKYFSAGSGTYYSDSIFFLSVAMHQIMPKEIPRIIQLDLDLKYKTNIRELFEEFDNFLPGAVIGIAREMQPVYRHTFWQFRHENPKTRVGDPPPEGLPGFNSGVMLLNLEAMRQSPLYSHLLEPSWVQQLADKYHFRGHLGDQDFFTMIGMEHPELFHVLDCTWNRQLCTWWRDHGYSDVFQAYFRCEGHVKIYHGNCNTPIPE

The target in data set [1] is B1. The data set can be described thus: SEC. For orientation: In gel filtration, larger molecules generally elute earlier.
Data set [2] addresses B1. The data set can be described thus: crystal structure.
The data set “crystal structure” concerns the molecule itself. Description: crystal structure.

Take VDGDQCESNPCLNGGSCKDDINSYECWCPFGFEGKNCEL (domain or fragment, Xyl-Glc disaccharide on Ser53) [human factor IX (hFA9) EGF repeat modified with the Xyl-Glc disaccharide]: the binding result in data set [1] was “binds”. With VDGDQCESNPCLNGGSCKDDINSYECWCPFGFEGKNCEL (domain or fragment, Xyl-Xyl-Glc trisaccharide on Ser53) [human factor IX (hFA9) EGF repeat with the Xyl-Xyl-Glc trisaccharide (product of XXYLT1)], in data set [2], the binding result is recorded as “binds”. B1: in the data set “crystal structure”, the “stoichiometry N” value was found to be 2.
